Like-named read-outs stand apart in the source and are kept apart here. Bridges are numbered along the chain shown (N, C = ends). Where no end group is shown, it is not given here. [ ]: non-standard residue; d: D form. NPhGly = O=C(O)CNc1ccccc1; Orn = NCCC[C@H](N)C(=O)O

The format of the series is physicochemical. The settings on record: for helicity by CD compared to native agonist and antagonist sequences: versus F/Nphe-[…], FIG. 12; for [θ]207: molar elipticity at 207 nm; for percentage helicities: equation 2b with k˜4, assuming 8 has 100% helicity. Here is the method:
Circular Dichroism (CD) was performed on peptides having SEQ ID NOs: 8 to 14 and 18 to 31, using methods described above. The molar elipticities at 222 nm, 208 nm and 190 nm, ratios of elipticities at 222 nm/208 nm and relative helicity are shown in Tables 6 and 7.
Assuming that mean alpha helix content (fH) is linearly related to elipticity at 222 nm, or in our case 215 nm ([θ]obs215), then the equation for calculating helix content is: fH=([θ]obs215−[θ]C)/([θ]∞215−[θ]C) (1) Luo and Baldwin^22 determined that the random coil ([θ]C) and infinite alpha helix ([θ]∞222) molar elipticities are temperature dependent based on the equations: [θ]C=2220−53T (2a) [θ]∞215=(−44000+250T)(1−k/Np) (2b) where T is temperature in degrees Celsius, Np is the number of peptide units, and k is a finite length correction.
CD was performed on peptides having one [SEQ ID NO: 8] or more than one modular macrocycle [SEQ ID NOs: 46 and 47], as compared with corresponding linear peptides, Ac[KARAD]n—NH2 where n=1 [SEQ ID NO: 14], n=2 [SEQ ID NO: 54] and n=3 [SEQ ID NO: 55]. The molar elipticities at 222 nm, 208 nm and 190 nm, ratios of elipticities at 222 nm/208 nm and percentage helicity are shown in Table 8.
CD experiments were performed on a Jasco Model J-710 spectropolarimeter which was routinely calibrated with (1S)-(+)-10-camphorsulfonic acid. Temperature control was achieved using a Neslab RTE-111 circulating water bath. Spectra were recorded in a 0.1 cm Jasco cell between 310-185 nm at 50 nm/min with a band width of 1.0 nm, response time of 2 sec, resolution step width of 0.1 nm and sensitivity of 20, 50 or 100 mdeg. Each spectrum represents the average of 5 scans with smoothing to reduce noise. Peptide samples for CD spectroscopy were dissolved in distilled water (˜1 mg/mL). Each stock solution was diluted to a final concentration of 50 μM in 10 mM sodium phosphate buffer (pH7.4), with or without additives (2,2,2-trifluoroethanol (TFE) or guanidine.HCl). Guanidine.HCl denaturation experiments were performed according to Creighton^105.
1D ^1H NMR spectra were then recorded with presaturation and a relaxation delay (d1) of 30 seconds to allow for full relaxation of peptide and DSS^1H signals to facilitate accurate integration of proton signals with S/N>250:1. This method provides reproducible concentrations within ±2%.
CD data in ellipticity was converted to mean peptide ellipticity using the equation: [θ]=θ/(10×C×Np×1) where θ is the ellipticity in millidegrees, C is the peptide molar concentration (M), 1 is the cell path length (cm), and Np is the number of peptide units (ie. pentapeptides […], 10 & 11 Np=5, 12 Np=4.)
Relative helicities were employed to allow scaling of compounds by dividing the [θ]obs215(8)/[θ]obs215(x) for pentapeptides, and [θ]obs215(24)/[θ]obs215(x) for hexapeptides.

Setting [1] is: [θ]215 relative to SEQ ID NO: 8, 10 mM phosphate buffer, pH 7.4, 25° C.
The mark [2] stands for this setting: molar elipticity at 190 nm, 10 mM phosphate buffer, pH 7.4, 25° C.
Where [3] appears, read: 10 mM phosphate buffer, pH 7.4, 25° C.
Where [4] appears, read: molar elipticity at 215 nm, 10 mM phosphate buffer, pH 7.4, 25° C.
The mark [5] stands for this setting: ratio of elipticities, 10 mM phosphate buffer, pH 7.4, 25° C.
Setting [6] is: cyclic hexapeptides 23-31, 10 mM phosphate buffer pH 7.4 at 25° C.
Setting [7] is: θ215 relative to SEQ ID NO: 24, 10 mM phosphate buffer pH 7.4 at 25° C.

Consider “Cyclo(6-10, 11-15)-FGGFT[KARKD][KRKLD]-NH2 (FGGFTKARKDKRKLD; bicyclic lactam bridges, C-terminal amide) [SEQ ID NO: 76]”, for which the “helicity by CD compared to native agonist and antagonist sequences” value is “increase helicity”.

As to “Ac-(cyclo-1,5)-[EARAO]-NH2 (Ac-EARA[Orn]-NH2; lactam 1-5; SMILES CC(=O)N[C@H]1CCC(=O)NCCC[C@@H](C(N)=O)NC(=O)[C@H](C)NC(=O)[C@H](CCCNC(=N)N)NC(=O)[C@H](C)NC1=O) [SEQ ID NO: 19]”, the Relative helicity under setting [1] is 0. In addition, the “[θ]190” value under setting [2] is −11256 deg.cm^2.dmol^−1.residue^−1. Further, the “[θ]207” value under setting [3] is −1917 deg.cm^2.dmol^−1.residue^−1. For the same substance, the “[θ]215” value under setting [4] is listed as 2442 deg.cm^2.dmol^−1.residue^−1. Further, the θ215/θ207 under setting [5] is −1.27.

On to “Ac-(cyclo-2,6)-R[KAQAD]-NH2 (Ac-RKAQAD-NH2; lactam 2-6; SMILES CC(=O)N[C@@H](CCCNC(=N)N)C(=O)N[C@H]1CCCCNC(=O)C[C@@H](C(N)=O)NC(=O)[C@H](C)NC(=O)[C@H](CCC(N)=O)NC(=O)[C@H](C)NC1=O) [SEQ ID NO: 26]”, for which the percentage helicities is listed as 70%. For the same substance, under setting [6], the “Molar ellipticity at 207 nm” value is −12279 deg.cm^2.dmol^−1.residue^−1, the “[θ]190” value is on record as 36865 deg.cm^2.dmol^−1.residue^−1, the “[θ]215” value is listed as −11394 deg.cm^2.dmol^−1.residue^−1 and the θ215/θ207 is 0.93. Further, under setting [7], the “Relative helicity” value came out at 0.84.

Under setting [1], “Ac-(cyclo-1,5)-[DARAO]-NH2 (Ac-DARA[Orn]-NH2; lactam 1-5; SMILES CC(=O)N[C@H]1CC(=O)NCCC[C@@H](C(N)=O)NC(=O)[C@H](C)NC(=O)[C@H](CCCNC(=N)N)NC(=O)[C@H](C)NC1=O) [SEQ ID NO: 13]” returned a Relative helicity of 0.37. For the same substance, under setting [2], the “[θ]190” value is given as −6954 deg.cm^2.dmol^−1.residue^−1. The “[θ]207” value under setting [3] was −9748 deg.cm^2.dmol^−1.residue^−1. The “[θ]215” value under setting [4] is −4671 deg.cm^2.dmol^−1.residue^−1. Besides, under setting [5], the θ215/θ207 stood at 0.48.

“Ac-(cyclo-2,6)-R[KAMAD]-NH2 (Ac-RKAMAD-NH2; lactam 2-6; SMILES CSCC[C@@H]1NC(=O)[C@H](C)NC(=O)[C@@H](NC(=O)[C@H](CCCNC(=N)N)NC(C)=O)CCCCNC(=O)C[C@@H](C(N)=O)NC(=O)[C@H](C)NC1=O) [SEQ ID NO: 25]” had a percentage helicities of 73%. In addition, under setting [6], the “Molar ellipticity at 207 nm” value is −12296 deg.cm^2.dmol^−1.residue^−1, the “[θ]190” value was 38464 deg.cm^2.dmol^−1.residue^−1, the “[θ]215” value was −11853 deg.cm^2.dmol^−1.residue^−1 and the θ215/θ207 is reported as 0.96. The “Relative helicity” value under setting [7] stood at 0.80.

“Ac-(cyclo-2,6)-R[KALAD]-NH2 (Ac-RKALAD-NH2; lactam 2-6; SMILES CC(=O)N[C@@H](CCCNC(=N)N)C(=O)N[C@H]1CCCCNC(=O)C[C@@H](C(N)=O)NC(=O)[C@H](C)NC(=O)[C@H](CC(C)C)NC(=O)[C@H](C)NC1=O) [SEQ ID NO: 24]” showed a percentage helicities of 91%. Besides, under setting [6], the “Molar ellipticity at 207 nm” value is reported as −15165 deg.cm^2.dmol^−1.residue^−1, the “[θ]190” value was 46621 deg.cm^2.dmol^−1.residue^−1, the “[θ]215” value is given as −14798 deg.cm^2.dmol^−1.residue^−1 and the θ215/θ207 amounted to 0.98. Moreover, the “Relative helicity” value under setting [7] is recorded as 1.00.

For the substance “Ac-(cyclo-2,6)-R[KSSSD]-NH2 (Ac-RKSSSD-NH2; lactam 2-6; SMILES CC(=O)N[C@@H](CCCNC(=N)N)C(=O)N[C@H]1CCCCNC(=O)C[C@@H](C(N)=O)NC(=O)[C@H](CO)NC(=O)[C@H](CO)NC(=O)[C@H](CO)NC1=O) [SEQ ID NO: 30]”, under setting [6], the “Molar ellipticity at 207 nm” value was −8017 deg.cm^2.dmol^−1.residue^−1, the “[θ]190” value is 6827 deg.cm^2.dmol^−1.residue^−1, the “[θ]215” value is given as −4432 deg.cm^2.dmol^−1.residue^−1 and the θ215/θ207 is recorded as 0.55. Moreover, the “Relative helicity” value under setting [7] is 0.30.

“Ac-(cyclo-1,5)-[EARAK]-NH2 (Ac-EARAK-NH2; lactam 1-5; SMILES CC(=O)N[C@H]1CCC(=O)NCCCC[C@@H](C(N)=O)NC(=O)[C@H](C)NC(=O)[C@H](CCCNC(=N)N)NC(=O)[C@H](C)NC1=O) [SEQ ID NO: 11]” returned a Relative helicity under setting [1] of 0.58. Also, the “[θ]190” value under setting [2] was 20735 deg.cm^2.dmol^−1.residue^−1. For the same substance, the “[θ]207” value under setting [3] was −12803 deg.cm^2.dmol^−1.residue^−1. For the same substance, under setting [4], the “[θ]215” value was −7430 deg.cm^2.dmol^−1.residue^−1. Also, the θ215/θ207 under setting [5] was 0.58.

As for “Ac-(cyclo-2,6)-R[KGSAD]-NH2 (Ac-RKGSAD-NH2; lactam 2-6; SMILES CC(=O)N[C@@H](CCCNC(=N)N)C(=O)N[C@H]1CCCCNC(=O)C[C@@H](C(N)=O)NC(=O)[C@H](C)NC(=O)[C@H](CO)NC(=O)CNC1=O) [SEQ ID NO: 29]”, under setting [6], the “Molar ellipticity at 207 nm” value is −6975 deg.cm^2.dmol^−1.residue^−1, the “[θ]190” value is reported as 12831 deg.cm^2.dmol^−1.residue^−1, the “[θ]215” value is reported as −4810 deg.cm^2.dmol^−1.residue^−1 and the θ215/θ207 worked out at 0.69. The “Relative helicity” value under setting [7] was 0.32.

In the case of “Cyclo(6-10, 11-15)-NpheGGFT[KARKD][KRKLD]-NH2 ([NPhGly]GGFTKARKDKRKLD-NH2; lactam 6-10, 11-15; N-terminus assumed; SMILES CC(C)C[C@@H]1NC(=O)[C@H](CCCCN)NC(=O)[C@H](CCCNC(=N)N)NC(=O)[C@@H](NC(=O)[C@@H]2CC(=O)NCCCC[C@H](NC(=O)[C@@H](NC(=O)[C@H](Cc3ccccc3)NC(=O)CNC(=O)CNC(=O)CNc3ccccc3)[C@@H](C)O)C(=O)N[C@@H](C)C(=O)N[C@@H](CCCNC(=N)N)C(=O)N[C@@H](CCCCN)C(=O)N2)CCCCNC(=O)C[C@@H](C(N)=O)NC1=O) [SEQ ID NO: 77]”, the “helicity by CD compared to native agonist and antagonist sequences” value is “increase helicity”.

For the substance “Ac-(cyclo-2,6)-R[KAGAD]-NH2 (Ac-RKAGAD-NH2; lactam 2-6; SMILES CC(=O)N[C@@H](CCCNC(=N)N)C(=O)N[C@H]1CCCCNC(=O)C[C@@H](C(N)=O)NC(=O)[C@H](C)NC(=O)CNC(=O)[C@H](C)NC1=O) [SEQ ID NO: 28]”, under setting [6], the “Molar ellipticity at 207 nm” value is −7678 deg.cm^2.dmol^−1.residue^−1, the “[θ]190” value is given as 10036 deg.cm^2.dmol^−1.residue^−1, the “[θ]215” value was −4874 deg.cm^2.dmol^−1.residue^−1 and the θ215/θ207 turned out to be 0.63. In addition, the “Relative helicity” value under setting [7] worked out at 0.32.

In turn, “H-(cyclo-1,5)-[KARAD]-OH (H-KARAD-OH; lactam 1-5; SMILES C[C@@H]1NC(=O)[C@H](CCCNC(=N)N)NC(=O)[C@H](C)NC(=O)[C@@H](N)CCCCNC(=O)C[C@@H](C(=O)O)NC1=O) [SEQ ID NO: 22]” registered a Relative helicity under setting [1] of 0.08. Further, the “[θ]190” value under setting [2] is −4966 deg.cm^2.dmol^−1.residue^−1. Further, the “[θ]207” value under setting [3] is −5737 deg.cm^2.dmol^−1.residue^−1. Moreover, the “[θ]215” value under setting [4] was −1033 deg.cm^2.dmol^−1.residue^−1. In addition, the θ215/θ207 under setting [5] stood at 0.18.

Under setting [1], “Ac-(cyclo-1,5)-[OARAE]-NH2 (Ac-[Orn]ARAE-NH2; lactam 1-5; SMILES CC(=O)N[C@H]1CCCNC(=O)CC[C@@H](C(N)=O)NC(=O)[C@H](C)NC(=O)[C@H](CCCNC(=N)N)NC(=O)[C@H](C)NC1=O) [SEQ ID NO: 18]” registered a Relative helicity of 0. The “[θ]190” value under setting [2] was −16228 deg.cm^2.dmol^−1.residue^−1. In addition, under setting [3], the “[θ]207” value is given as −3368 deg.cm^2.dmol^−1.residue^−1. Under setting [4], the “[θ]215” value is given as 741 deg.cm^2.dmol^−1.residue^−1. In addition, under setting [5], the θ215/θ207 is recorded as −0.22.

The values above are taken from patent US8629241B2, “Alpha helical mimics, their uses and methods for their production” (The University of Queensland, priority 2004, dated 2014).
